Test results reported in patent US20200181239A1.

Columns and labels:
canine PD-L1 (canine) = test: competition ELISA: biotinylated canine PD-L1 pre-incubated with the inhibitor, then bound to coated canine PD-1, streptavidin-HRP
papain = papain (UniProt P00784)
[1] = target: T1, human Stefin A (wild type human Cystatin A)
T1 chain: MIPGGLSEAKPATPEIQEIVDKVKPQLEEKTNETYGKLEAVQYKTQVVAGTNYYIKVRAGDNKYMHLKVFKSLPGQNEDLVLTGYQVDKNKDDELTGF

Molecule: canine PD-1 (receptor)
- IC50 (read off the curve) (canine PD-L1 (canine)): 20 nM

Molecule: human Stefin A (wild type human Cystatin A) (from UniProt P01040 1-98)
- IC50 (read off the curve) (papain): 1 nM

B1: papain (protein)
chain: IPEYVDWRQKGAVTPVKNQGSCGSCWAFSAVVTIEGIIKIRTGNLNEYSEQELLDCDRRSYGCNGGYPWSALQLVAQYGIHYRNTYPYEGVQRYCRSREKGPYAAKTDGVRQVQPYNEGALLYSIANQPVSVVLEAAGKDFQLYRGGIFVGPCGNKVDHAVAAVGYGPNYILIKNSWGTGWGENGYIRIKRGTGNSYGVCGLYTSSFYPVKN
- papain activity assay: fluorescence (excitation 380 nm, emission 460 nm) from the substrate N-Carbobenzyloxy-Phe-Arg-7-amido-4-methylcoumarin [1]: hSteA is a potent inhibitor of papain
